Source: US20080227735, “Aptamers Selected From Live Tumor Cells and the Use Thereof” (COMMISSARIAT A L'ENERGIE ATOMIQUE, published 2008)

How the values were obtained:
[1] = biological target: T1, Ret receptor tyrosine kinase C634Y (RetC634Y) on PC12 MEN 2A cells (Homo sapiens, UniProt P07949 P07949:29-1114, C634Y); test: whole PC12 MEN 2A cells, RPMI, 37C, 10 min, polyinosine competitor; target on cell not directly proven; 102 ± 58 x1000 targets/cell; details: tags: stably transfected in rat PC12 cells; constitutive homodimer; chain copies: 2 (inferred); label: 5'-32P; stem-loop with internal loops (predicted)
Experimental: (§1) The binding of the various aptamers (or of the initial pool, as control) to the PC12 MEN 2A cells is carried out in 24-well plates (experiments carried out in triplicate), with 5′-³²P-labeled RNA. 10⁵ cells per well are incubated with various concentrations of aptamers in 200 μl of RPMI for 10 min at 37° C. in the presence of 100 μg/ml of polyinosine, as non-specific competitor. After several washes, the bound sequences are recovered in 350 μl of 0.6% SDS and the amount of radioactivity recovered is related to the number of cells by measuring the protein content in each well.

[2] = biological target: T1, Ret receptor tyrosine kinase C634Y …; test: whole PC12 MEN 2A cells, RPMI, 37C, 10 min, polyinosine; 110 ± 47 x1000 targets/cell; no binding to parental PC12, NBTII or HeLa cells lacking Ret; details: tags: stably transfected in rat PC12 cells; constitutive homodimer; chain copies: 2 (inferred); stem-loop with internal loops (predicted)
Experimental: as §1

[3] = biological target: T1, Ret receptor tyrosine kinase C634Y …; test: whole PC12 MEN 2A cells, RPMI, 37C; 102 ± 25 x1000 targets/cell; competes with D4 (p188); details: tags: stably transfected in rat PC12 cells; constitutive homodimer; chain copies: 2 (inferred); label: 5'-32P
Experimental: as §1

T1 sequence (P07949 29-1114 C634Y, one chain of several): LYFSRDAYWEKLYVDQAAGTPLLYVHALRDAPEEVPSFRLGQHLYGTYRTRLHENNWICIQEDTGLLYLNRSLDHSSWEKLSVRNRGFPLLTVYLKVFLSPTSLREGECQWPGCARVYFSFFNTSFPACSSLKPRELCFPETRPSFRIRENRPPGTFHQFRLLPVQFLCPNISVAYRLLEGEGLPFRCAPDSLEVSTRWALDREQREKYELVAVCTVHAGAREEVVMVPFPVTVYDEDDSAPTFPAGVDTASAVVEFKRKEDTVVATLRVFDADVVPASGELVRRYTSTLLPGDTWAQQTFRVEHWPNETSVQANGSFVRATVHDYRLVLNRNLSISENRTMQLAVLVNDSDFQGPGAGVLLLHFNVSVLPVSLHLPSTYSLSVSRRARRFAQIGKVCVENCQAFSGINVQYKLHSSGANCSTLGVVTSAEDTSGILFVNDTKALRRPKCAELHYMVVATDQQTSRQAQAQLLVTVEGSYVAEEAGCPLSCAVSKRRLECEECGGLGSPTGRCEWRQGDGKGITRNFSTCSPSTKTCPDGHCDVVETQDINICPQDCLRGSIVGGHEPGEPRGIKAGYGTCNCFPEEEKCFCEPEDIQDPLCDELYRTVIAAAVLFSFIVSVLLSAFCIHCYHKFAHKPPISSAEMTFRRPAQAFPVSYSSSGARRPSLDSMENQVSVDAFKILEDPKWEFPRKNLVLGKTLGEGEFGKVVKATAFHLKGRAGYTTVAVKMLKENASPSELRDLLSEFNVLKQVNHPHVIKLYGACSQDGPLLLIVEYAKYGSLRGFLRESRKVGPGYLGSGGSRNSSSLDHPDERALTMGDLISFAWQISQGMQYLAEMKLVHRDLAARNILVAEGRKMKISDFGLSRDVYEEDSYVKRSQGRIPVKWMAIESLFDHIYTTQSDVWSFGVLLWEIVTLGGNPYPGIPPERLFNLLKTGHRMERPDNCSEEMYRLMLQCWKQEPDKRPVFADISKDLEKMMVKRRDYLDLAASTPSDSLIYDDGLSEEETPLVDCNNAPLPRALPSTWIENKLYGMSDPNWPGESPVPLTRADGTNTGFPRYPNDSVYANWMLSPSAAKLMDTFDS

B1: D24 (ssRNA)
RNA: GGGAGACAAGAAUAAACGCUCAAGCGGUAUGUAGGGAAUAGCACUUUUUUUGCGUAUACCUACACCGCAGCGAACGACAGGAGGCUCACAACAGGA
modifications: 2'-F pyrimidines (all C and U)
- Kd [1]: 32 nM

B2: D4 (ssRNA)
RNA: GGGAGACAAGAAUAAACGCUCAAGCGCGGGAAUAGUAUGGAAGGAUACGUAUACCGUGCAAUCCAGGGCAACGAACGACAGGAGGCUCACAACAGGA
modifications: 2'-F pyrimidines (all C and U)
- Kd [2]: 35 nM

B3: D12 (ssRNA)
RNA: GGGAGACAAGAAUAAACGCUCAAGGGCUUCAUAAGCUACACCGGCCAACGCAGAAAUGCCUUAAGCCCGAGUUAACGACAGGAGGCUCACAACAGGA
modifications: 2'-F pyrimidines (all C and U)
- Kd [3]: 67 nM
